Target: T1, TRC-1 (p21 SNF-1/JunB heteromultimer), SLB-I nuclear extract (Homo sapiens) (UniProt Q9NR55+P17275)
T1 sequence 1: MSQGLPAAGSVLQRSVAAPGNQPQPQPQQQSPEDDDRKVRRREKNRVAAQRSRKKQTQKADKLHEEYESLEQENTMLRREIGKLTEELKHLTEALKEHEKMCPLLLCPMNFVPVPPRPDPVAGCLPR
T1 sequence 2: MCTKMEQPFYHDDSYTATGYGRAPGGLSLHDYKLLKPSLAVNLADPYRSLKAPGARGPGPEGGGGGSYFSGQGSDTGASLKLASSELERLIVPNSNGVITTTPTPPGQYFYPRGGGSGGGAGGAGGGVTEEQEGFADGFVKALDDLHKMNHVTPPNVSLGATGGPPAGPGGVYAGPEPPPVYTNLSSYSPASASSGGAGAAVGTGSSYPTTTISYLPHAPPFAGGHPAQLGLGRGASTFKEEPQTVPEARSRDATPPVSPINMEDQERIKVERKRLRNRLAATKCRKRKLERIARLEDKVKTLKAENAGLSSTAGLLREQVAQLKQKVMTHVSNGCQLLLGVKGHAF
Test: competition
Settings: EMSA, site2 probe

Question: Which binding signal (fold excess for 55% competition) does the source give for HTLV-1 LTR 21-bp repeat site1 (s1) here?
Answer: The binding signal (fold excess for 55% competition) was 100.

Question: How did the binding signal (fold excess for 55% competition) (nearly 50-fold) turn out when HTLV-1 LTR 21-bp repeat site3 (s3) was run?
Answer: The binding signal (fold excess for 55% competition) was 50.

Question: How did the binding signal (% competition at 12.5-fold excess) (on ice) turn out when HTLV-1 LTR 21-bp repeat site2 (s2) was run?
Answer: Its binding signal (% competition at 12.5-fold excess) is 55.

From patent US5616475
